{"source": "patent US6084068", "about": "“Elongin A and C functional domains” (Oklahoma Medical Research Foundation, dated 2000)", "binders": {"B1": {"name": "wild type C. elegans Elongin A (other)", "chain": "MPETDEEKVRRYTECLMNGIDPKRALKRLYDLNVSPEVFKSADTVQCVKRYESSPELAKYAKRVRDKLLGGRKREKGGGEDDADIEHTALKKAKKEEVNLDEEFAEAMKSGVSAQASSAPRATVDYSKYKVVKRVEVKVEPKPEPVDVHEQQASSSSMSYQREHQKDYAPVVPTCKPSGQPKKAIPQSKSLHADENMFKPRKERQKVFAGRRKRVGEGVSTLVSLCQTVLMSHIDMIDHVGIVPFDLLKPVLDHASTDQLRHILDVNPMLVEDADEMFHEMVSREFPKYANREKSGWTWREMYDRLVEKKQKKENDKLEMLTSRIGKSNSAQSQGRQTMVIDMAHTRVRSKSFFNTVKDSQVKMSATPSALQLSQARKNVKIEGKAQLRTITPRGGGVPSTSRSRSNNNNNMNNGLVVKKTAPLMAKCKKMLKR"}, "B2": {"name": "C. elegans Elongin A mutant C.e.EloA(202-434) (other)", "chain": "KERQKVFAGRRKRVGEGVSTLVSLCQTVLMSHIDMIDHVGIVPFDLLKPVLDHASTDQLRHILDVNPMLVEDADEMFHEMVSREFPKYANREKSGWTWREMYDRLVEKKQKKENDKLEMLTSRIGKSNSAQSQGRQTMVIDMAHTRVRSKSFFNTVKDSQVKMSATPSALQLSQARKNVKIEGKAQLRTITPRGGGVPSTSRSRSNNNNNMNNGLVVKKTAPLMAKCKKMLKR"}, "B3": {"name": "Elongin C internal deletion mutant C(Δ51-60) (other)", "chain": "MDGEEKTYGGCEGPDAMYVKLISSDGHEFIVKREHALTSGTIKAMLSGPGNFREIPSHVLSKVCMYFTYKVRYTNSSTEIPEFPIAPEIALELLMAANFLDC"}, "B4": {"name": "Elongin C internal deletion mutant C(Δ61-70) (other)", "chain": "B3 chain with N51Q, R53A, I55N, P56E, S57T, H58N, V59E, L60V"}, "B5": {"name": "Elongin C internal deletion mutant C(Δ91-100) (other)", "chain": "MDGEEKTYGGCEGPDAMYVKLISSDGHEFIVKREHALTSGTIKAMLSGPGQFAENETNEVNFREIPSHVLSKVCMYFTYKVRYTNSSTEILELLMAANFLDC"}, "B6": {"name": "Elongin C deletion mutant C(19-112) (other)", "chain": "VKLISSDGHEFIVKREHALTSGTIKAMLSGPGQFAENETNEVNFREIPSHVLSKVCMYFTYKVRYTNSSTEIPEFPIAPEIALELLMAANFLDC"}, "B7": {"name": "Elongin C alanine scanning mutant C(Ala19-21) (other)", "chain": "MDGEEKTYGGCEGPDAMYAAAISSDGHEFIVKREHALTSGTIKAMLSGPGQFAENETNEVNFREIPSHVLSKVCMYFTYKVRYTNSSTEIPEFPIAPEIALELLMAANFLDC"}, "B8": {"name": "Elongin C alanine scanning mutant C(Ala25-27) (other)", "chain": "B7 chain with A19V, A20K, A21L, D25A, G26A, H27A"}, "B9": {"name": "Elongin C alanine scanning mutant C(Ala28-30) (other)", "chain": "B7 chain with A19V, A20K, A21L, E28A, F29A, I30A"}, "B10": {"name": "Elongin C alanine scanning mutant C(Ala22-24) (other)", "chain": "B7 chain with A19V, A20K, A21L, I22A, S23A, S24A"}, "B11": {"name": "Elongin C deletion mutant C(1-97) (other)", "chain": "MDGEEKTYGGCEGPDAMYVKLISSDGHEFIVKREHALTSGTIKAMLSGPGQFAENETNEVNFREIPSHVLSKVCMYFTYKVRYTNSSTEIPEFPIAP"}, "B12": {"name": "Elongin C deletion mutant C(1-83) (other)", "chain": "MDGEEKTYGGCEGPDAMYVKLISSDGHEFIVKREHALTSGTIKAMLSGPGQFAENETNEVNFREIPSHVLSKVCMYFTYKVRY"}, "B13": {"name": "Elongin C internal deletion mutant C(Δ71-80) (other)", "chain": "MDGEEKTYGGCEGPDAMYVKLISSDGHEFIVKREHALTSGTIKAMLSGPGQFAENETNEVNFREIPSHVLVRYTNSSTEIPEFPIAPEIALELLMAANFLDC"}, "B14": {"name": "Elongin C internal deletion mutant C(Δ81-90) (other)", "chain": "B13 chain with V71S, R72K, Y73V, T74C, N75M, S76Y, S77F, E79Y, I80K"}, "B15": {"name": "Elongin C deletion mutant C(15-112) (other)", "chain": "DAMYVKLISSDGHEFIVKREHALTSGTIKAMLSGPGQFAENETNEVNFREIPSHVLSKVCMYFTYKVRYTNSSTEIPEFPIAPEIALELLMAANFLDC"}, "B16": {"name": "Elongin C deletion mutant C(23-112) (other)", "chain": "SSDGHEFIVKREHALTSGTIKAMLSGPGQFAENETNEVNFREIPSHVLSKVCMYFTYKVRYTNSSTEIPEFPIAPEIALELLMAANFLDC"}, "B17": {"name": "Elongin C internal deletion mutant C(Δ31-40) (other)", "chain": "MDGEEKTYGGCEGPDAMYVKLISSDGHEFITIKAMLSGPGQFAENETNEVNFREIPSHVLSKVCMYFTYKVRYTNSSTEIPEFPIAPEIALELLMAANFLDC"}, "B18": {"name": "Elongin C internal deletion mutant C(Δ41-50) (other)", "chain": "B17 chain with T31V, I32K, K33R, A34E, M35H, L36A, S37L, G38T, P39S"}, "B19": {"name": "Elongin A internal deletion mutant Δ521-545 (other)", "chain": "MAAESALQVVEKLQARLAANPDPKKLLKYLKKLSVLPITVDILVETGVGKTVNSFRKHEQVGNFARDLVAQWKKLVPVERNNEAEDQDFEKSNSRKRPRDVPQQEEEAEGNYQESWQASGSQPYSPEHRQKKHRKLPELERPHKVAHGHERRDERKRCHKVSPPYSSDPESSDYGHVQSPPPSSPHQMYTDLSRSPEMDQEPIVSHPKPGKVHSNTFQDRLGVSHLGEHQGKGAVSQNKPHKSSHKEKRPVDARGDEKSSVMGREKSHKASSKEESRRLLSEDSAKEKLPSSVVKKEKDREGNSLKKKLSPALDVASDNHFKKPKHKDSEKIKSDKNKQSVDSVDSGRGTGDPLPRAKDKVPNNLKAQEGKVRTNSDRKSPGSLPKVEEMDMDDEFEQPTMSFESYLSYDQPRKKKKKVVKTSGTALGEKGLKKKDSKSTSKNLNSAQKLPKANENKSDKLQPAGAEPTRPRKVPTDVLPALPDIPLPAIQTNYRPLPSLELISSFQPKRKAFSSPQEEEKMMTLHQQCIRVLKNNIDSIFEVGGVPYSVLEPVLERCTPDQLYRIEECNHVLIEETDQLWKVHCHRDFKEERPEEYESWREMYLRLQDAREQRLRLLTNNIRSAHANKPKGRQAKMAFVNSVAKPPRDVRRRQEKFGTGGAAVPEKVRIKPAPYTTGSSHVPASNSSSSFHSSPEELAYEGPSTSSAHLAPVASSSVSYDPRKPAVKKIAPMMAKTIKAFKNRFSRR"}, "B20": {"name": "Elongin A internal deletion mutant Δ481-520 (other)", "chain": "MAAESALQVVEKLQARLAANPDPKKLLKYLKKLSVLPITVDILVETGVGKTVNSFRKHEQVGNFARDLVAQWKKLVPVERNNEAEDQDFEKSNSRKRPRDVPQQEEEAEGNYQESWQASGSQPYSPEHRQKKHRKLPELERPHKVAHGHERRDERKRCHKVSPPYSSDPESSDYGHVQSPPPSSPHQMYTDLSRSPEMDQEPIVSHPKPGKVHSNTFQDRLGVSHLGEHQGKGAVSQNKPHKSSHKEKRPVDARGDEKSSVMGREKSHKASSKEESRRLLSEDSAKEKLPSSVVKKEKDREGNSLKKKLSPALDVASDNHFKKPKHKDSEKIKSDKNKQSVDSVDSGRGTGDPLPRAKDKVPNNLKAQEGKVRTNSDRKSPGSLPKVEEMDMDDEFEQPTMSFESYLSYDQPRKKKKKVVKTSGTALGEKGLKKKDSKSTSKNLNSAQKLPKANENKSDKLQPAGAEPTRPRKVPTDVLPEAGFTGRRMNSKMQVYSGSKCAYLPKMMTLHQQCIRVLKNNIDSIFEVGGVPYSVLEPVLERCTPDQLYRIEECNHVLIEETDQLWKVHCHRDFKEERPEEYESWREMYLRLQDAREQRLRLLTNNIRSAHANKPKGRQAKMAFVNSVAKPPRDVRRRQEKFGTGGAAVPEKVRIKPAPYTTGSSHVPASNSSSSFHSSPEELAYEGPSTSSAHLAPVASSSVSYDPRKPAVKKIAPMMAKTIKAFKNRFSRR"}}, "note": "Changes are numbered by the printed parent chain."}
{"molecular_target": "T1, Elongin BC complex (wild type rat Elongin B and C) (rat, UniProt P62870)", "T1 chain 1": "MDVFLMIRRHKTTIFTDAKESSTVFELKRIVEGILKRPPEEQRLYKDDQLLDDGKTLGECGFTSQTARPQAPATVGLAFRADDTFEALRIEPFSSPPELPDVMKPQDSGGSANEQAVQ", "T1 chain 2": "B7 chain with A19V, A20K, A21L", "assay": "refolded with rat Elongin B and C; TSK SP-NPR HPLC, SDS-PAGE, silver staining", "method": "Figure 8A: FIG. 8A. Analysis of wild type and mutant C. elegans Elongin A wherein wild type or mutant C. elegans Elongin A was refolded with rat Elongin B and C and subjected to TSK SP-NPR HPLC as described. Aliquots of the peak column fractions were analyzed by SDS-PAGE, and proteins were visualized by silver staining. WT C.e. […] Figure 8B: FIG. 8B. ~2 pmol of human or C. elegans Elongin A proteins were refolded as described (Bradsher, et al., *J Biol Chem* 268: 25587–25593 (1993)) in the presence or absence of ~2 pmol of rat Elongin B and C. Aliquots of refolded protein were assayed for transcriptional activity in oligo dc-tailed template assays performed as described. Reaction mixtures contained no Elongin (lane 1); 3 and 9 μl of renatured human Elongin A without (lanes 2 and 3) or with (lanes 4 and 5) Elongin B and C; 3 and 9 μl of renatured wild type C. elegans Elongin A without (lanes 6 and 7) or with (lanes 8 and 9) Elongin B and C; 3 and 9 μl of renatured C.e. EloA(94–434) (SEQ ID NO:44) without (lanes 10 and 11) or with (lanes 12 and 13) Elongin B and C; 3 and 9 μl of renatured C.e. EloA (202–434) (SEQ ID NO:45) with (lanes 14 and 15) or without (lanes 16, and 17) Elongin B and C."}
{"binder": "B1", "binding result": "binds"}
{"binder": "B2", "binding result": "binds"}
{"molecular_target": "wild type Elongin B (rat, UniProt P62870)", "assay": "refolded with wild type Elongin B; TSK DEAE-NPR HPLC, SDS-PAGE, silver staining", "method": "Figure 10A: FIG. 10A. […] Aliquots of the indicated column fractions were analyzed by SDS-PAGE, and proteins were visualized by silver staining. Figure 10B: FIG. 10B. N-terminal, C-terminal, and internal Elongin C deletion mutants were assayed for their abilities to form Elongin BC complexes as described.\n~6 µg of Elongin B was mixed with ~6 µg of either wild type or mutant Elongin C and diluted 5-fold with 40 mM Hepes-NaOH (pH 7.9), 100 mM KCl, 2 mM DTT, 50 µM ZnSO_4, 0.1 mM EDTA, and 10% (v/v) glycerol. After incubation for 90 min on ice, the mixtures were dialyzed at 4° C. overnight against 40 mM Tris-HCl (pH 7.9), 0.1 mM EDTA, 10% (v/v) glycerol, and 40 mM KCl. Following dialysis, the mixtures were centrifuged at 60,000×g for 15 min at 4° C. The resulting supernatants were applied to TSK DEAE-NPR columns (35 mm×4.6 mm, Toso-Haas) pre-equilibrated in 40 mM Tris-HCl (pH 7.9), 0.1 mM EDTA, 1 mM DTT, 10% (v/v) glycerol, and 40 mM KCl and fractionated using a SMART microchromatography system (Pharmacia) at 8° C. The columns were eluted at 0.3 ml/min with a 3 ml linear gradient from 0.04 to 0.5M KCl in 40 mM Tris-HCl (pH 7.9), 0.1 mM EDTA, 1 mM DTT, and 10% (v/v) glycerol. Aliquots of each column fraction were analyzed by 10% Tris-Tricine SDS-polyacrylamide gel electrophoresis, and the proteins were visualized by silver staining."}
{"binder": "B3", "binding result": "binds"}
{"binder": "B4", "binding result": "binds"}
{"binder": "B5", "binding result": "binds"}
{"binder": "B6", "binding result": "binds"}
{"binder": "B7", "binding result": "binds"}
{"binder": "B8", "binding result": "no binding"}
{"binder": "B9", "binding result": "no binding"}
{"binder": "B10", "binding result": "binds"}
{"binder": "B11", "binding result": "binds"}
{"binder": "B12", "binding result": "binds"}
{"binder": "B13", "binding result": "binds"}
{"binder": "B14", "binding result": "binds"}
{"binder": "B15", "binding result": "binds"}
{"binder": "B16", "binding result": "no binding"}
{"binder": "B17", "binding result": "binds"}
{"binder": "B18", "binding result": "binds"}
{"molecular_target": "T1, Elongin BC complex (wild type rat …)", "assay": "refolded with wild type Elongin B and C; TSK SP-NPR HPLC, SDS-PAGE, silver staining"}
{"binder": "B19", "binding result": "binds"}
{"binder": "B20", "binding result": "binds"}
